Results on one molecule are retold here after publication PMC2171732 (The Journal of Cell Biology, 2005).

In the experiment the target is T1, Myo2p globular tail subdomain II (residues 1346–1574), tryptic fragment (S. cerevisiae, UniProt P19524 1346-1574).
T1 sequence (looked up): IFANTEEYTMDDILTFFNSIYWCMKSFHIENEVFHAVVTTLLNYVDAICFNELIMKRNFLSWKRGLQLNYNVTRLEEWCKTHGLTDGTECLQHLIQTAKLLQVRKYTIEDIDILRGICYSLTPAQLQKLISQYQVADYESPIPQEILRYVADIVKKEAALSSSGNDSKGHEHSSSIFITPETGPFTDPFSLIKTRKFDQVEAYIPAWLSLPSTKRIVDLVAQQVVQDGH
As to the kind of experiment: SEC. Background: In gel filtration, larger molecules generally elute earlier.

The term Kd denotes the constant that tells how readily two partners part at equilibrium. Higher therefore signals lower affinity.

B1: Myo2p globular tail subdomain I (residues 1131–1345), tryptic fragment (domain or fragment, S. cerevisiae, UniProt P19524 1131-1345, looked up)
chain: STPSSGNNHIDSLSVDRENGVNATQINEELYRLLEDTEILNQEITEGLLKGFEVPDAGVAIQLSKRDVVYPARILIIVLSEMWRFGLTKQSESFLAQVLTTIQKVVTQLKGNDLIPSGVFWLANVRELYSFVVFALNSILTEETFKNGMTDEEYKEYVSLVTELKDDFEALSYNIYNIWLKKLQKQLQKKAINAVVISESLPGFSAGETSGFLNK
As to B1, the Kd is no more than 1 nM.
